The target in data set [1] is Anabaena sensory rhodopsin (Anabaena sp. PCC7120). The data set is described as follows: high-speed atomic force microscopy (HS-AFM); protein reconstituted in asolectin lipid membrane of limited size with MSP1E3D1, on APTES-treated mica; 20 mM Tris-HCl (pH 8.0), 50 mM NaCl, room temperature; oligomer seen subunit by subunit.
Data set [2] has the same target. Briefly: circular dichroism spectroscopy (visible, exciton coupling of retinals); protein reconstituted in POPE/POPG (3:1) liposomes, protein:lipid 1:50; 100 mM NaCl, 20 mM Tris-HCl (pH 8.0), 25 °C. A general note: CD spectra are sensitive to the conformation of chiral molecules.
For data set [3], the target named is Fulvimarina rhodopsin (Fulvimarina pelagi). The data set is described as follows: high-speed atomic force microscopy (HS-AFM); protein reconstituted in asolectin lipid membrane of limited size with MSP1E3D1, on APTES-treated mica; 20 mM Tris-HCl (pH 8.0), 50 mM NaCl, room temperature; oligomer seen subunit by subunit.
In data set [4] the target is KR2_(278) (Krokinobacter eikastus). The description is as above.
Data set [5] has the same target. The data set is described as follows: high-speed atomic force microscopy (HS-AFM); protein reconstituted in asolectin lipid membrane with MSP1E3D1, on APTES-treated mica; acidic solution: 20 mM citrate-NaOH (pH 4.3), 50 mM NaCl, room temperature.
For data set [6], the target named is Kineococcus radiotolerans actinorhodopsin (Kineococcus radiotolerans). The data set is described as follows: high-speed atomic force microscopy (HS-AFM); protein reconstituted in asolectin lipid membrane of limited size with MSP1E3D1, on APTES-treated mica; 20 mM Tris-HCl (pH 8.0), 50 mM NaCl, room temperature; oligomer seen subunit by subunit.
Data set [7] concerns the target Krokinobacter eikastus rhodopsin 2 (Krokinobacter eikastus). The description is as above.
Data set [8] has the same target. Briefly: circular dichroism spectroscopy (visible, exciton coupling of retinals); protein solubilized in DDM.
For data set [9], the target named is Parvularcula oceani xenorhodopsin (Parvularcula oceani). The data set is described as follows: high-speed atomic force microscopy (HS-AFM); protein reconstituted in asolectin lipid membrane of limited size with MSP1E3D1, on APTES-treated mica; 20 mM Tris-HCl (pH 8.0), 50 mM NaCl, room temperature; oligomer seen subunit by subunit.
For data set [10] the target is unchanged. Briefly: circular dichroism spectroscopy (visible, exciton coupling of retinals); protein reconstituted in POPE/POPG (3:1) liposomes, protein:lipid 1:50; 100 mM NaCl, 20 mM Tris-HCl (pH 8.0), 25 °C.
The target of data set [11] is Quadrisphaera actinorhodopsin (Quadrisphaera sp. R2A-380-A). Briefly: high-speed atomic force microscopy (HS-AFM); protein reconstituted in asolectin lipid membrane of limited size with MSP1E3D1, on APTES-treated mica; 20 mM Tris-HCl (pH 8.0), 50 mM NaCl, room temperature; oligomer seen subunit by subunit.
Data set [12] concerns the molecule itself. Described as above.
The target of data set [13] is T1, Natronomonas pharaonis sensory rhodopsin II (Natronomonas pharaonis), P42196.
T1 chain: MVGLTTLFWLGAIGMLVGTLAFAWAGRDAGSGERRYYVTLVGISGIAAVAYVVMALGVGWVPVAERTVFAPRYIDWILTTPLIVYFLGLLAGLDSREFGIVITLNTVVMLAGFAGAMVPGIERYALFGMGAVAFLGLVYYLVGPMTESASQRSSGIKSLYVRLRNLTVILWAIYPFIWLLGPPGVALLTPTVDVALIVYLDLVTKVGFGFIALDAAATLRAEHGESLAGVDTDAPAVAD
Described as above. Conditions: remark: other sources report otherwise.

As a reminder, the stoichiometry N is the number of molecules, sites or subunits per partner or assembly.

Where “and” joins values, the source holds several entries; their conditions need not be identical. Equal entries are not always repeated.

Consider “Anabaena sensory rhodopsin (natural protein)”, for which the stoichiometry N in [1] and in data set [2] was 3 throughout.

Fulvimarina rhodopsin (natural protein) yielded a stoichiometry N in data set [3] of 5. For the molecule KR2_(278) (domain or fragment), the stoichiometry N in [4] and in [5] was 5 throughout. Take “Kineococcus radiotolerans actinorhodopsin (natural protein)”: the stoichiometry N in data set [6] turned out to be 5.

Turning to “Krokinobacter eikastus rhodopsin 2 (natural protein)”, the stoichiometry N in data set [7] and in data set [8] was 5 throughout.

Take “Parvularcula oceani xenorhodopsin (natural protein)”: the stoichiometry N in data set [9] and in data set [10] was 3 each time. Take “Quadrisphaera actinorhodopsin (natural protein)”: the stoichiometry N in [11] came to 5.

B1: Gloeobacter rhodopsin (natural protein, Gloeobacter violaceus PCC 7421, UniProt Q7NP59 1-298, looked up)
chain: MLMTVFSSAPELALLGSTFAQVDPSNLSVSDSLTYGQFNLVYNAFSFAIAAMFASALFFFSAQALVGQRYRLALLVSAIVVSIAGYHYFRIFNSWDAAYVLENGVYSLTSEKFNDAYRYVDWLLTVPLLLVETVAVLTLPAKEARPLLIKLTVASVLMIATGYPGEISDDITTRIIWGTVSTIPFAYILYVLWVELSRSLVRQPAAVQTLVRNMRWLLLLSWGVYPIAYLLPMLGVSGTSAAVGVQVGYTIADVLAKPVFGLLVFAIALVKTKADQESSEPHAAIGAAANKSGGSLIS
modifications: retinal chromophore
notes: Gloeobacter rhodopsin (GR), proton pump, from Gloeobacter violaceus PCC 7421; also called GR; rhodopsin from Gloeobacter violaceus PCC 7421; not shown: His6, C-terminal, kept
Consider B1, for which the “stoichiometry N” value in data set [12] was 5.

B2: Natronomonas pharaonis sensory rhodopsin II, P42196 1-239 (natural protein)
chain: MVGLTTLFWLGAIGMLVGTLAFAWAGRDAGSGERRYYVTLVGISGIAAVAYVVMALGVGWVPVAERTVFAPRYIDWILTTPLIVYFLGLLAGLDSREFGIVITLNTVVMLAGFAGAMVPGIERYALFGMGAVAFLGLVYYLVGPMTESASQRSSGIKSLYVRLRNLTVILWAIYPFIWLLGPPGVALLTPTVDVALIVYLDLVTKVGFGFIALDAAATLRAEHGESLAGVDTDAPAVAD
modifications: here or on the partner: retinal chromophore; retinal chromophore
In turn, B2 showed a stoichiometry N in [13] of 3.

B3: Natronomonas pharaonis halorhodopsin (natural protein, UniProt P15647 1-291, looked up)
chain: MTETLPPVTESAVALQAEVTQRELFEFVLNDPLLASSLYINIALAGLSILLFVFMTRGLDDPRAKLIAVSTILVPVVSIASYTGLASGLTISVLEMPAGHFAEGSSVMLGGEEVDGVVTMWGRYLTWALSTPMILLALGLLAGSNATKLFTAITFDIAMCVTGLAAALTTSSHLMRWFWYAISCACFLVVLYILLVEWAQDAKAAGTADMFNTLKLLTVVMWLGYPIVWALGVEGIAVLPVGVTSWGYSFLDIVAKYIFAFLLLNYLTSNESVVSGSILDVPSASGTPADD
modifications: retinal chromophore
notes: Halorhodopsin (chloride pump) from Natronomonas pharaonis; also called NpHR
As for B3, in [12], the “stoichiometry N” value was 3.

B4: green-absorbing proteorhodopsin (natural protein, uncultured marine gamma proteobacterium, UniProt Q9F7P4 18-249, looked up)
chain: AGGGDLDASDYTGVSFWLVTAALLASTVFFFVERDRVSAKWKTSLTVSGLVTGIAFWHYMYMRGVWIETGDSPTVFRYIDWLLTVPLLICEFYLILAAATNVAGSLFKKLLVGSLVMLVFGYMGEAGIMAAWPAFIIGCLAWVYMIYELWAGEGKSACNTASPAVQSAYNTMMYIIIFGWAIYPVGYFTGYLMGDGGSALNLNLIYNLADFVNKILFGLIIWNVAVKESSNA
modifications: retinal chromophore
notes: Green-absorbing proteorhodopsin (GPR), proton pump, from uncultured marine gamma proteobacterium; Pentamers (76%) and hexamers (24%) coexist in the lipid; copies gives the dominant form; also called green proteorhodopsin
For the molecule B4, the “stoichiometry N” value in data set [12] is 5 and 6.

These data come from article PMC5974397, “Oligomeric states of microbial rhodopsins determined by high-speed atomic force microscopy and circular dichroic spectroscopy” (Scientific Reports, 2018).
